Laboratory results as given in patent publication US20090118127A1.

Molecular target: extra-cellular domain of recombinantly expressed RSV F protein (human Respiratory Syncytial Virus)
Assay: Biacore (SPR)

extra-cellular domain of recombinantly expressed RSV F protein (human Respiratory Syncytial Virus), sequence (P03420 26-524): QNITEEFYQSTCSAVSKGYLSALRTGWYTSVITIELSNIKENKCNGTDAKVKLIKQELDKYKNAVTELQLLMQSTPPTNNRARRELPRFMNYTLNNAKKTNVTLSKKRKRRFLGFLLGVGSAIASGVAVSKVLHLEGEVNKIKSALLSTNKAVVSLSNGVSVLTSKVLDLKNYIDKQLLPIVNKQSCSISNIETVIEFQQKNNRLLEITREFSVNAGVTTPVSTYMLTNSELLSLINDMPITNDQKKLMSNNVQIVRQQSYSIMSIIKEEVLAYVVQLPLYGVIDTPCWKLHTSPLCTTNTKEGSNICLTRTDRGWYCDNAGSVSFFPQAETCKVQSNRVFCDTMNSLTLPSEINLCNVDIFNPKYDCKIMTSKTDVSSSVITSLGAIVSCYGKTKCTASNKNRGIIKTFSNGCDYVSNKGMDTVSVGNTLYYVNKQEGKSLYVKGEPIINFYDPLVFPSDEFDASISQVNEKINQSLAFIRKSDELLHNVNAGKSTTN

Substance | Kd [nM]
Numax™ (antibody) | 0.24
SYNAGIS® brand of pavilizumab (antibody) | 0.4
